{"source": "the supplement of paper PMC9170038", "data": [{"test_system": "MS2 coat protein", "assay": "apparent KD of MS2 coat protein; higher = weaker reporter binding", "settings": "Eterna round: R107; input ligand: theophylline 20 uM", "procedure,_shortened": "(§1)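 Designed RNA switches were transcribed on-chip from Illumina sequencing clusters. They were then titrated with SNAP-549-labelled MS2 coat protein (twofold steps, 0.7 or 1.5 nM to 3 µM; 0.8–1.5 h to 10–20 min per step) in 100 mM Tris-HCl pH 7.5, 80 mM KCl, 4 mM MgCl2, without or with constant ligand. Apparent KD is the per-design median of normalised cluster binding-curve fits.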", "units": {"apparent KD of MS2 coat protein": "nM"}, "values": [{"sequence": "CAAAAUAUCGGAAGGAGCGCGGGUAGGCGGGUUGGAUCACAUGAGGAUCACCCAUGUAAAUCGCAGGUAGGUCGCCGAUAACGCG [XArg-B27]", "apparent KD of MS2 coat protein": 60.4}, {"sequence": "AAUGUAUGGCACAUGAGGAUCACCCAUGUGCGAGGACCGGUACGGCCGCCACUCGGUCAAGGGAUCUUACCUCUAUACAUUAAUG [XTryp A #22]", "apparent KD of MS2 coat protein": 14.7}, {"sequence": "UAUAUAGAAGGAAGUCAUAUAGUUGCAGAAGGAGCGUAGGAAACUACAGGUAGGUCGCUGAGGUACAUGAGGAUCACCCAUGUAG [SSArg A #16 Slice of Pi]", "apparent KD of MS2 coat protein": 41}, {"sequence": "UUUAUUUAUUUAUUUAUUUAUUUAACAGAAGGAGCGUGGAUUAACACAGGUAGGUCGCUGACAUGAGGAUCACCCAUGUAUUAUU [SSAA #1]", "apparent KD of MS2 coat protein": 48}, {"sequence": "UUAUUUAUAAUGGAUACCAGUCGUAUGGCCCGGCAUCCUGACAUGAGGAUCACCCAUGUCGACCCUUGGCAGCUGUUAUGGGUUU [XTheo B #21]", "apparent KD of MS2 coat protein": 17}, {"sequence": "UCGUUUGAGUCGGCCGCCACUGGUCUCAUGGUCAACAUGAGGAUCACCCAUGUAUCUUAGUUAAACAGGACCGGGACUCGAUCGA [#17 Exclusion Tryptophan B]", "apparent KD of MS2 coat protein": 67.7}, {"sequence": "GGCUAACAUGAGGAUCACCCAUGUAUUGAUACCAGUAUUUGAAAAUACCCUUGGCAGCAAAUGAAGAGCGUAGCAGGGUCGAUUA [theeternabot_sameState_MS2_Theo_A_7]", "apparent KD of MS2 coat protein": 17}, {"sequence": "UAACAUGAGGAUCACCCAUGUAUACUAAGUCGAGGACCGGUACGGCCGCCACUCGAACUUCAAGAAUAGGCGGUAAAUGUAAGUA [JR_ExcTryptoA_Sub020]", "apparent KD of MS2 coat protein": 16.5}]}, {"test_system": "MS2 coat protein", "assay": "apparent KD of MS2 coat protein; higher = weaker reporter binding", "settings": "Eterna round: R107; input ligand: theophylline 2 mM", "procedure,_shortened": "as §1", "units": {"apparent KD of MS2 coat protein": "nM"}, "values": [{"sequence": "GCAUCCUAGUCGGCCGCCACUGCAACAUGAGGAUCACCCAUGUCAGGCCUCAUGUGUCCUGGUAGCAGGACCGGGACUAGGAUGC [(T1)-(M1)-(M2)-(T)''-(M)'-(T)'-(T2)_Design4_2/18/17]", "apparent KD of MS2 coat protein": 52}, {"sequence": "UGUACCAUGUCGGCCGCCACUCAUGAUAAAUAUGAGGAUCACCCAUAUAGCGUCAAAGACGCUAUGAGGACCGGGACAUGGUACU [TryBS Zipper 2]", "apparent KD of MS2 coat protein": 50.4}, {"sequence": "GUCCACAGCCGAAGGAGCGCUAGAAGAUGACAUGAGGAUCACCCAUGUGUGUGGUGUGGCUAGCAGGUAGGUCGCGGAGUGGAUU [Exclusion - Arginine B (Freestyle 15)]", "apparent KD of MS2 coat protein": 39}, {"sequence": "GGACCAGGGAGCGAUACCAGCUUGAGUGUGCUGGCCAGGCACAUGAGGAUCACCCAUGUAAGCCCUUGGCAGCGCUCCCUGGUCC [#1 Exclusion - Theophylline B Attempt #27 (HarryS)]", "apparent KD of MS2 coat protein": 13.9}, {"sequence": "AUUCAUGGAAACAUGACAUACAUUACCGGUCGAGGACCGGUACGGCCGCCACUCGGUUGGUGGCACAUGAGGAUCACCCAUGUUA [SS Tryp A #11]", "apparent KD of MS2 coat protein": 30}, {"sequence": "AAUGUAUGGCACAUGAGGAUCACCCAUGUGCGAGGACCGGUACGGCCGCCACUCGGUCCUGGGAUCUUAUUACUAUACAUUAAUG [XTryp A #17]", "apparent KD of MS2 coat protein": 12.5}, {"sequence": "CAAAAUAUCGGAAGGAGCGCGGGUAGGCGGGUUGGAUCACAUGAGGAUCACCCAUGUAAAUCGCAGGUAGGUCGCCGAUAACGCG [XArg-B27]", "apparent KD of MS2 coat protein": 37.9}, {"sequence": "AAUGUAUGGCACAUGAGGAUCACCCAUGUGCGAGGACCGGUACGGCCGCCACUCGGUCAAGGGAUCUUACCUCUAUACAUUAAUG [XTryp A #22]", "apparent KD of MS2 coat protein": 11.9}, {"sequence": "UAUAUAGAAGGAAGUCAUAUAGUUGCAGAAGGAGCGUAGGAAACUACAGGUAGGUCGCUGAGGUACAUGAGGAUCACCCAUGUAG [SSArg A #16 Slice of Pi]", "apparent KD of MS2 coat protein": 29.7}, {"sequence": "UUUAUUUAUUUAUUUAUUUAUUUAACAGAAGGAGCGUGGAUUAACACAGGUAGGUCGCUGACAUGAGGAUCACCCAUGUAUUAUU [SSAA #1]", "apparent KD of MS2 coat protein": 41.6}, {"sequence": "UCGUUUGAGUCGGCCGCCACUGGUCUCAUGGUCAACAUGAGGAUCACCCAUGUAUCUUAGUUAAACAGGACCGGGACUCGAUCGA [#17 Exclusion Tryptophan B]", "apparent KD of MS2 coat protein": 34.3}, {"sequence": "UAACAUGAGGAUCACCCAUGUAUACUAAGUCGAGGACCGGUACGGCCGCCACUCGAACUUCAAGAAUAGGCGGUAAAUGUAAGUA [JR_ExcTryptoA_Sub020]", "apparent KD of MS2 coat protein": 14}]}, {"test_system": "MS2 coat protein", "assay": "apparent KD of MS2 coat protein; higher = weaker reporter binding", "settings": "Eterna round: R107; input ligand: tryptophan 2.4 mM", "procedure,_shortened": "as §1", "units": {"apparent KD of MS2 coat protein": "nM"}, "values": [{"sequence": "UCUUUCUAUGUAGAUACCAGCAUGUUAUCUUUCUUUUGACAUGAGGAUCACCCAUGUAAAUGCCCUUGGCAGCUACAUUUUCUUU [SSTHB #3]", "apparent KD of MS2 coat protein": 19.7}, {"sequence": "UGUACCAUGUCGGCCGCCACUCAUGAUAAAUAUGAGGAUCACCCAUAUAGCGUCAAAGACGCUAUGAGGACCGGGACAUGGUACU [TryBS Zipper 2]", "apparent KD of MS2 coat protein": 14}, {"sequence": "GGCGGACUUAUAGAUACCAGCACAUGAGGAUCACCCAUGUUUGGUCGCACCUCAGUCCUGUGCCCUUGGCAGCUAUGAUAGAUUU [Leaatge]", "apparent KD of MS2 coat protein": 16.1}, {"sequence": "GUCCACAGCCGAAGGAGCGCUAGAAGAUGACAUGAGGAUCACCCAUGUGUGUGGUGUGGCUAGCAGGUAGGUCGCGGAGUGGAUU [Exclusion - Arginine B (Freestyle 15)]", "apparent KD of MS2 coat protein": 26.1}, {"sequence": "GGACCAGGGAGCGAUACCAGCUUGAGUGUGCUGGCCAGGCACAUGAGGAUCACCCAUGUAAGCCCUUGGCAGCGCUCCCUGGUCC [#1 Exclusion - Theophylline B Attempt #27 (HarryS)]", "apparent KD of MS2 coat protein": 11.1}, {"sequence": "CAAAAUAUCGGAAGGAGCGCGGGUAGGCGGGUUGGAUCACAUGAGGAUCACCCAUGUAAAUCGCAGGUAGGUCGCCGAUAACGCG [XArg-B27]", "apparent KD of MS2 coat protein": 30.1}, {"sequence": "UAUAUAGAAGGAAGUCAUAUAGUUGCAGAAGGAGCGUAGGAAACUACAGGUAGGUCGCUGAGGUACAUGAGGAUCACCCAUGUAG [SSArg A #16 Slice of Pi]", "apparent KD of MS2 coat protein": 27.2}, {"sequence": "UUUAUUUAUUUAUUUAUUUAUUUAACAGAAGGAGCGUGGAUUAACACAGGUAGGUCGCUGACAUGAGGAUCACCCAUGUAUUAUU [SSAA #1]", "apparent KD of MS2 coat protein": 35.8}, {"sequence": "UUAUUUAUAAUGGAUACCAGUCGUAUGGCCCGGCAUCCUGACAUGAGGAUCACCCAUGUCGACCCUUGGCAGCUGUUAUGGGUUU [XTheo B #21]", "apparent KD of MS2 coat protein": 13.8}, {"sequence": "UCGUUUGAGUCGGCCGCCACUGGUCUCAUGGUCAACAUGAGGAUCACCCAUGUAUCUUAGUUAAACAGGACCGGGACUCGAUCGA [#17 Exclusion Tryptophan B]", "apparent KD of MS2 coat protein": 20.6}, {"sequence": "GGCUAACAUGAGGAUCACCCAUGUAUUGAUACCAGUAUUUGAAAAUACCCUUGGCAGCAAAUGAAGAGCGUAGCAGGGUCGAUUA [theeternabot_sameState_MS2_Theo_A_7]", "apparent KD of MS2 coat protein": 12.6}]}]}
